Earlier results, collected in PMC3138520.

Target: NRG-1β (Homo sapiens) (UniProt Q02297)
Sequence of UniProt Q02297 (Q02297 20-241): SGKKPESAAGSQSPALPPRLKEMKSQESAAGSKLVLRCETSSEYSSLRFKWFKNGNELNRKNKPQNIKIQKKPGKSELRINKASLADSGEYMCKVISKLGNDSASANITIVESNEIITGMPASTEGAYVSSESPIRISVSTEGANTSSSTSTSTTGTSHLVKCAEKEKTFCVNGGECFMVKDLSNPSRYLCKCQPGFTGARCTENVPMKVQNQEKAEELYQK

Kd: 10 nM
Substance: HER3 (from UniProt P21860)
